Assay results taken from patent US20070060497A1, “Reagents for modifying biopharmaceuticals, the use and production thereof” (priority 2003, published 2007).

What was measured:
trypsin = assay: Peptidolytic activity of trypsin (α-benzoylarginine-para-nitroanilide, 405 nm); type: biochemical
Source text: (§1) Determining the enzyme activities: L-asparaginase catalyzes the deamidation of L-asparagine to form L-aspartic acid. In order to determine the enzyme activity, ammonium which was being released in this reaction was quantified using Neβler reagent. Streptokinase activates plasminogen. Plasminogen which has been activated in this way catalyzes the hydrolysis of the tripeptide derivative D-Val-Leu-Lys-para-nitroanilide (S-2251). In order to indirectly determine the activity of streptokinase, the quantity of nitroaniline which was released was quantified photometrically at 405 nm. The para-nitroanilide derivative α-benzoylarginine-para-nitroanilide was used to determine the peptidolytic activity of trypsin, by photometrically quantifying the nitroaniline which was released at 405 nm.
Substance 16 (0.5 eq./1.5 μl, 1 eq./2.7 μl, 2 eq./5.4 μl, 5 eq./13.8 μl and, respectively, 10 eq./27.3 μl) dissolved in dimethyl sulfoxide (10 mg/ml) was added to 120 μl of a solution of trypsin (1.0 mg/ml) in sodium carbonate buffer (pH 8.5 to 9.5) and the mixture was made up to a total volume of 150 μl using sodium carbonate buffer (pH 8.5 to 9.5). The reaction mixture was incubated at 25° C. and 300 rpm for 1 h on a thermomixer. Excess substance 16 was then removed by means of filtration in centrifuge filtration units (10 kDa cut-off) using water as rinsing liquid.

L-asparaginase = target: T1, L-asparaginase (Escherichia coli, UniProt P00805); assay: L-asparaginase enzyme activity (ammonium released, quantified with Nessler reagent); type: biochemical
T1 construct: purchased ProThera
Source text: as §1
Substance 16 (0.5 eq./0.7 μl, 1 eq./1.4 μl, 2 eq./2.7 μl, 5 eq./6.8 μl, 10 eq./13.7 μl and, respectively, 20 eq./27.3 μl) dissolved in dimethyl sulfoxide (10 mg/ml) was added to 75 μl of a solution of L-asparaginase (0.5 mg/ml) in sodium carbonate buffer (pH 8.5 to 9.5) and the mixture was made up to a total volume of 150 μl using sodium carbonate buffer (pH 8.5 to 9.5). The reaction mixture was incubated at 25° C. and 300 rpm for 1 h on a thermomixer. Excess substance 16 was then removed by means of filtration in centrifuge filtration units (10 kDa cut-off) using water as rinsing liquid.

| Molecule | Residual activity (trypsin; 0.5 eqs. of 16 employed) [%] | Residual activity (trypsin; 1 eq. of 16 employed) [%] | Residual activity (trypsin; 2 eqs. of 16 employed) [%] | Residual activity (trypsin; 5 eqs. of 16 employed) [%] | Residual activity (trypsin; 10 eqs. of 16 employed, degree of modification 44%) [%] | Residual activity (L-asparaginase; 0.5 eqs. of 16 employed) [%] | Residual activity (L-asparaginase; 1 eq. of 16 employed) [%] | Residual activity (L-asparaginase; 2 eqs. of 16 employed) [%] | Residual activity (L-asparaginase; 5 eqs. of 16 employed) [%] | Residual activity (L-asparaginase; 10 eqs. of 16 employed, degree of modification 41%) [%] | Residual activity (L-asparaginase; 20 eqs. of 16 employed, degree of modification 43%) [%] |
| --- | --- | --- | --- | --- | --- | --- | --- | --- | --- | --- | --- |
| conjugate composed of trypsin and substance 16: conjugate composed of the compound according to the invention substance 16 and trypsin (conjugate, UniProt P00760 24-246, looked up, conjugated to substance 16, conjugate composed of the compound according to the invention substance 16 and trypsin) Serine protease 1: IVGGYTCGANTVPYQVSLNSGYHFCGGSLINSQWVVSAAHCYKSGIQVRLGEDNINVVEGNEQFISASKSIVHPSYNSNTLNNDIMLIKLKSAASLNSRVASISLPTSCASAGTQCLISGWGNTKSSGTSYPDVLKCLKAPILSDSSCKSAYPGQITSNMFCAGYLEGGKDSCQGDSGGPVVCSGKLQGIVSWGSGCAQKNKPGVYTKVCNYVSWIKQTIASN | 104 | 109 | 119 | 136 | 137 |  |  |  |  |  |  |
| conjugate composed of L-asparaginase and substance 16: conjugate composed of the compound according to the invention substance 16 and L-asparaginase (conjugate, UniProt P00805 23-348, looked up, conjugated to substance 16, conjugate composed of the compound according to the invention substance 16 and L-asparaginase) L-asparaginase 2: LPNITILATGGTIAGGGDSATKSNYTVGKVGVENLVNAVPQLKDIANVKGEQVVNIGSQDMNDNVWLTLAKKINTDCDKTDGFVITHGTDTMEETAYFLDLTVKCDKPVVMVGAMRPSTSMSADGPFNLYNAVVTAADKASANRGVLVVMNDTVLDGRDVTKTNTTDVATFKSVNYGPLGYIHNGKIDYQRTPARKHTSDTPFDVSKLNELPKVGIVYNYANASDLPAKALVDAGYDGIVSAGVGNGNLYKSVFDTLATAAKTGTAVVRSSRVPTGATTQDAEVDDAKYGFVASGTLNPQKARVLLQLALTQTKDPQQIQQIFNQY |  |  |  |  |  | 100 | 100 | 92 | 87 | 75 | 60 |
